Experiments:
6H-Flag-CSB (human) = 6H-Flag-CSB (human) (UniProt Q03468); assay: SEC; Superdex 200 in Buffer B (25 mM Tris-Cl pH 7.5, 10% glycerol, 0.5 mM EDTA, 500 mM KCl, 0.01% IGEPAL, 1 mM DTT), 4 °C; last step of the purification
[1] = biological target: T1, hRAD52 with a C-terminal 6x-his tag (human, UniProt P43351 1-418); assay: cross-linking; 1 mM DSS, 100 mM Hepes pH 7.5, 50 mM KCl, 25 °C, 1 h; cross-linked species (>250 kDa) cut from SDS-PAGE, trypsin, mass spectrometry (pLink); settings: both partners purified
T1 construct: RAD52, human (hRAD52), from pET28b-RAD52; also called His-RAD52; RAD52 protein; source: E. coli Rosetta, purified (Affiblue, Ni-NTA); not shown: His6, C-terminal, kept
T1 sequence (looked up): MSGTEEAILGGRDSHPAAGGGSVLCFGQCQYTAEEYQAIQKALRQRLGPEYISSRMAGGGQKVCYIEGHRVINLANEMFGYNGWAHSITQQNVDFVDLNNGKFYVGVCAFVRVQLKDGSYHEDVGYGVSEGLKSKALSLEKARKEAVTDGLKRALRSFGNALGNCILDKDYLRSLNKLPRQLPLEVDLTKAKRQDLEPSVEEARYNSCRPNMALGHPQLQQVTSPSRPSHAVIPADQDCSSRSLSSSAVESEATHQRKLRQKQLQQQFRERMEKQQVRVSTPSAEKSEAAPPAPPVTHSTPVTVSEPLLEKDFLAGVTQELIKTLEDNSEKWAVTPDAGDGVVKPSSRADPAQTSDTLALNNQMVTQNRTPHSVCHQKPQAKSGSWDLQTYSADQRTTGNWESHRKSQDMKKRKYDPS

[2] = biological target: 6H-Flag-CSB full length (CSB-FL) (human, UniProt Q03468 1-1493); assay: EMSA; 1 mM Mg2+; much higher affinity than RAD52; EMSA: 25 mM Tris-HCl pH 7.5, 1 mM MgCl2, 1 mM DTT, 50 ug/mL BSA, 50 mM NaCl, 15 min 37 C, 6% PAGE-TBE at 4 C; pull-down: 20 mM Tris-HCl pH 7.5, 50 mM NaCl, 2 mM MgCl2, 0.1% Tween-20, 30% glycerol, RNase 0.2 U/uL (so in the source); settings: protein: recombinant; chain copies: 2; label: 5' maleimide-IR800 on oligo 1 (RNA); blunt
RAD52 = biological target: T2, RAD52 (human, UniProt P43351 1-418); assay: EMSA; 1 mM Mg2+; lower affinity than CSB-FL; EMSA: 25 mM Tris-HCl pH 7.5, 1 mM MgCl2, 1 mM DTT, 50 ug/mL BSA, 50 mM NaCl, 15 min 37 C, 6% PAGE-TBE at 4 C; pull-down: 20 mM Tris-HCl pH 7.5, 50 mM NaCl, 2 mM MgCl2, 0.1% Tween-20, 30% glycerol, RNase 0.2 U/uL (so in the source); settings: protein: recombinant; tags: C-terminal 6xHis; label: 5' maleimide-IR800 on oligo 1 (RNA); blunt
T2 sequence: T1 sequence (looked up)

GST-CSB-AD = GST-CSB-AD (human, UniProt Q03468 337-509); assay: EMSA; 1 mM Mg2+; EMSA: 25 mM Tris-HCl pH 7.5, 1 mM MgCl2, 1 mM DTT, 50 ug/mL BSA, 50 mM NaCl, 15 min 37 C, 6% PAGE-TBE at 4 C; pull-down: 20 mM Tris-HCl pH 7.5, 50 mM NaCl, 2 mM MgCl2, 0.1% Tween-20, 30% glycerol, RNase 0.2 U/uL (so in the source); settings: protein: recombinant; tags: GST (N-term, pGEX-4T-3); label: 5' maleimide-IR800 on oligo 1 (RNA); blunt
GST-CSB-CTD = GST-CSB-CTD (human, UniProt Q03468 1200-1493); assay: as above; settings: protein: recombinant; tags: GST (N-term, pGEX-4T); label: 5' maleimide-IR800 on oligo 1 (RNA); blunt
GST-CSB-CTD, sequence (Q03468 1200-1493): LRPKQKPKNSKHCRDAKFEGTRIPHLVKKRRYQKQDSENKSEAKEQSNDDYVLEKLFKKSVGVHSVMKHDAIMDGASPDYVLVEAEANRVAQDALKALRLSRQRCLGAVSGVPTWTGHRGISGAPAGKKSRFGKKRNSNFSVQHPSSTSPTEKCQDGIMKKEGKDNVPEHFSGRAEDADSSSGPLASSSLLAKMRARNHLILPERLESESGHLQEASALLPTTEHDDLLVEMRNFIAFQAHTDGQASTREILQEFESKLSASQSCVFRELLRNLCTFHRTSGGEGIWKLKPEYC

6H-Flag-CSB full length (CSB-FL), sequence (Q03468 whole entry): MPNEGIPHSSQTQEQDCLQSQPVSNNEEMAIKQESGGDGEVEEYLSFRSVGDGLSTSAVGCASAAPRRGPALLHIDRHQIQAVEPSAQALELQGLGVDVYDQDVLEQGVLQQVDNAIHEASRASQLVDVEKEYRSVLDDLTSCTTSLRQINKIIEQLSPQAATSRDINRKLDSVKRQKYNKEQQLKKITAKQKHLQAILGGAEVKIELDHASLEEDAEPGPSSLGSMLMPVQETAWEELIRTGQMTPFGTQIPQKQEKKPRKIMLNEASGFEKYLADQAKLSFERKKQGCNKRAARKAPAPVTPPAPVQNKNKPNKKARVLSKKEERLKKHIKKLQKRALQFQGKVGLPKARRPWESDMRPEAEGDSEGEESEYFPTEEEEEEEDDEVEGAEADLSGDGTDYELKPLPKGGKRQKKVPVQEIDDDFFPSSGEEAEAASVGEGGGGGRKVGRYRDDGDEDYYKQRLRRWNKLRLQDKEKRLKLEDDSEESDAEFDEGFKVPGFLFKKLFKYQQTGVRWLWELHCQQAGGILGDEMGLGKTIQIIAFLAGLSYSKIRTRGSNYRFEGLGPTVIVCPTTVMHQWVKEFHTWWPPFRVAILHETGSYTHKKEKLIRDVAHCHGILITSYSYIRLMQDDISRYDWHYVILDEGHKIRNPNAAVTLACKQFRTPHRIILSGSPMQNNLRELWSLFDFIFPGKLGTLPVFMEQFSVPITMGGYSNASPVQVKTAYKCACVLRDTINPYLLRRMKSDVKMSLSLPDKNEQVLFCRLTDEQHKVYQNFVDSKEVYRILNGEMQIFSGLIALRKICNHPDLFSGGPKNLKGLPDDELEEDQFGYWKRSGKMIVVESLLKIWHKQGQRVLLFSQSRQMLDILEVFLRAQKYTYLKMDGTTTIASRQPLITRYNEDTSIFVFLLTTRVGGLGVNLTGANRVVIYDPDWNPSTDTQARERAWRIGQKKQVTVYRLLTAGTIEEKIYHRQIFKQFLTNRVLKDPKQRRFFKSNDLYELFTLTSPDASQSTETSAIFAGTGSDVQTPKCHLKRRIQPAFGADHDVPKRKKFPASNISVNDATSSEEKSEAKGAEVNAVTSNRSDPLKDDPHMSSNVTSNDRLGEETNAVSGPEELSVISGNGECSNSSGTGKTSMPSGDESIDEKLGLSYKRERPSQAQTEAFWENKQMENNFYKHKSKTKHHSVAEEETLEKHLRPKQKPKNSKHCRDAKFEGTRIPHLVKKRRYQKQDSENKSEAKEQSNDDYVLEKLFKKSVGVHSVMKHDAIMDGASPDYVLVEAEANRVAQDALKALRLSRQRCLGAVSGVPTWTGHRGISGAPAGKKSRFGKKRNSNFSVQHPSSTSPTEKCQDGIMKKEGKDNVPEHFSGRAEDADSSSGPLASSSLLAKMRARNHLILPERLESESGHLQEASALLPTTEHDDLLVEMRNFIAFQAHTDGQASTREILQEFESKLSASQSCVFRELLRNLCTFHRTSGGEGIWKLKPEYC

## 6H-Flag-CSB (from UniProt Q03468 1-1493) (natural protein; other documents disagree on this pair)
6H-Flag-CSB (human)
  stoichiometry N: 2

B1: GST-CSB-AD (residues 337-509) (domain or fragment, human, UniProt Q03468 337-509, looked up)
chain: KRALQFQGKVGLPKARRPWESDMRPEAEGDSEGEESEYFPTEEEEEEEDDEVEGAEADLSGDGTDYELKPLPKGGKRQKKVPVQEIDDDFFPSSGEEAEAASVGEGGGGGRKVGRYRDDGDEDYYKQRLRRWNKLRLQDKEKRLKLEDDSEESDAEFDEGFKVPGFLFKKLFK
notes: Cockayne Syndrome Protein B (CSB), human, acidic domain residues 337-509; Inserted into pGEX-4T-3 with XhoI and NotI; also called GST-tagged human CSB-AD; purified CSB-AD; source: E. coli Rosetta 2, purified (glutathione sepharose 4B)
[1]
  binding result: binds

B2: DNA:RNA hybrid oligo 1/oligo 2 (DNA:RNA)
RNA: UUAAUUGGUGUGACUAAUCGAAGUUGAUACAUCGACGUUAUGGUGAUGAU
DNA: ATCATCACCATAACGTCGATGTATCAACTTCGATTAGTCACACCAATTAA
[2]
  binding result: binds
RAD52
  binding result: binds
GST-CSB-AD
  binding result: no binding
GST-CSB-CTD
  binding result: binds
